# Experimental data published in patent US12612465B2, “Formulations comprising PCSK9 specific monoclonal antibodies” (Amgen Inc., priority 2012, dated 2026).
# Columns and labels:
# [1] = Viscosity measurement of 11F1 formulations; assay type: physicochemical; conditions: 10 mM sodium acetate
# Experimental: Concentration determination was then carried out by measuring absorbance at A280 using an Agilent 8453 Spectrophotometer (Santa Clara, Calif.). Protein concentration was calculated using the appropriate extinction coefficient. The appropriate amount of buffer was then added to the sample to dilute it back down to the desired concentration and another A280 was performed to obtain the final concentration for the experiment. Excipients were added individually to the 11F1 formulations samples derived from the high concentration stock solutions.
# Viscosity was measured using Brookfield LV-DVII cone and plate viscometer (Middleboro, Mass.) with a CPE-40 spindle with matching sample cup temperature regulated by a circulating water bath at constant 25° C. 500 μL of sample was added to sample cup with positive displacement pipettor. […] At this point the rotational speed was stopped and a viscosity reading was generated by Rheocalc software.
# High concentration protein formulations were sometimes measured using a different type of viscometer, an Anton Paar Physica Model MCR300 with a CP50-1 spindle. A 600 uL sample is used in this instrument and Rheoplus software version 3.4 was use to calculate solution viscosity. There was not a large difference in measurements using either viscometer.
# [2] = Pharmacokinetics in mice expressing human PCSK9 by AAV; assay type: in vivo, mouse; conditions: 30 mg/kg intravenous
# Experimental: Serum concentrations of antibody were determined using a sandwich ELISA assay. Polyclonal goat anti-human Fc IgG and an HRP-labeled goat anti-human IgG Fcγ polyclonal reagent (both from Jackson ImmunoResearch Laboratories Inc, West Grove, Pa.) were used as the capture and the detection antibody, respectively. A 3,3′,5,5′ tetramethylbenzidine (TMB) substrate solution reacted with peroxide, and in the presence of horse radish peroxidase (HRP), created a colorimetric signal that was proportional to the amount of the respective anti-PCSK9 antibody bound by the capture reagent. The intensity of the color (optical density, OD) was measured at 450 nm minus 650 nm using a microplate reader (Spectra Max Plus 384). Data was analyzed using Watson version 7.0.0.01 (Thermo Scientific, Waltham, Mass.) data reduction package with a Logistic (auto-estimate) regression of separately prepared standard curves. The lower limit of quantification (LLOQ) for the assay was […].
# Non-compartmental analysis (NCA) was performed on serum concentrations using the pre-determined nominal time points for each subject using WinNonlin Enterprise, version 5.1.1 (Pharsight, St. Louis, Mo.). […] NCA parameters reported include: apparent half-life (t½), area under the serum concentration-time curve from time zero to the last measured concentration (AUC0-t), and apparent serum clearance (CL0-t). […]
# [3] = tested on: PCSK9; assay: Serum lipids after a single subcutaneous dose in cynomolgus monkeys; assay type: in vivo, cynomolgus monkey; conditions: 0.5 mg/kg single SC
# Source text: Briefly, naive male cynomolgus monkeys were acclimated to their environment for at least 2 weeks prior to experimentation. Animals were randomized into treatment groups based on a pre-screen of their serum TC, HDL-C, LDL-C, and triglyceride levels, and their body weight. After 1 week, animals were fasted overnight, and bled from the peripheral vasculature (cephalic or saphenous vein), for measurement of baseline serum lipid levels at a time point designated T=0. […] Fasting blood samples were then collected from animals at designated time points over a 45 day period.
# At specified time points, blood was collected from animals under overnight fasting conditions from the peripheral vasculature (cephalic or saphenous vein). Whole blood was allowed to coagulate for 30 minutes at room temperature. Following centrifugation at 3,000 rpm for 20 minutes, serum was collected. Direct serum cholesterol analysis was performed using the Cobas Integra 400 analyzer (Roche Diagnostics Inc, Indianapolis, Ind.). Apolipoprotein B serum levels were determined at specified time points (day 0, 3, 6, 15, 24 and 33) by Anilytics, Md., with the following methodology. A 17 μL aliquot of the sample (no preparation) was used for analysis with a Hitachi 717 Analyzer using a 6 points standard curve. If the initial value of the sample was higher than the standard curve linearity, then the sample was diluted and repeated with the result multiplied by the appropriate dilution factor. The reagents for the assay (APO-B Reagent Kit #86071, Antibody Set #86060, Control Set #86103) were obtained from DiaSorin (Stillwater, Minn.).
# A statistical model that considers baseline as a covariate and treatment group as a fixed effect was fit to the log transformed response at each time point for LDL-C, HDL-C, TC, and triglycerides. Tukey's multiple comparison correction was applied to adjust the pair wise comparisons at each time point. The statistical significance was evaluated at alpha=0.05 using adjusted p-values.
substance,measurement,setting,value
"11F1: anti-PCSK9 ABP, light/heavy variable region SEQ ID NO 465/463 [Antibody 11F1]",Viscosity @ 25 C.,"[1]; 145 mg/mL, 9% Sucrose 0.01% PS 20, pH 5.2",14 cP
same,Viscosity @ 25 C.,"[1]; 147 mg/mL, 150 mM Methionine, 3% Sucrose, 0.01% PS 20, pH 5.2",13 cP
same,Viscosity @ 25 C.,"[1]; 170 mg/mL, 250 mM Praline, 0.01% PS 20, pH 5.0",18 cP
same,Viscosity @ 25 C.,"[1]; 172 mg/mL, 9% Sucrose 0.01% PS 20, pH 5.2",23 cP
same,Viscosity @ 25 C.,"[1]; 186 mg/mL, 9% Sucrose 0.01% PS 20, pH 5.2",45 cP
same,Viscosity @ 25 C.,"[1]; 191 mg/mL, 9% Sucrose 0.01% PS 20, pH 5.2",53 cP
same,Viscosity @ 25 C.,"[1]; 192 mg/mL, 150 mM Methionine, 3% Sucrose, 0.01% PS 20, pH 5.2",31 cP
same,Viscosity @ 25 C.,"[1]; 196 mg/mL, 250 mM Praline, 0.01% PS 20, pH 5.0",36 cP
same,Viscosity @ 25 C.,"[1]; 211 mg/mL, 9% Sucrose, 100 mM Arginine, pH 5.2",26 cP
same,Viscosity @ 25 C.,"[1]; 211 mg/mL, 9% Sucrose, 150 mM Alanine, pH 5.2",43 cP
same,Viscosity @ 25 C.,"[1]; 211 mg/mL, 9% Sucrose, 150 mM Glycine, pH 5.2",45 cP
same,Viscosity @ 25 C.,"[1]; 211 mg/mL, 9% Sucrose, 150 mM Serine, pH 5.2",48 cP
same,Viscosity @ 25 C.,"[1]; 211 mg/mL, 9% Sucrose, 150 mM sodium chloride, pH 5.2",62 cP
same,Viscosity @ 25 C.,"[1]; 211 mg/mL, 9% Sucrose, pH 5.2",73 cP
same,Viscosity @ 25 C.,"[1]; 211 mg/mL, pH 5.2",58 cP
same,Viscosity @ 25 C.,"[1]; 212 mg/mL, 150 mM Methionine, 3% Sucrose, 0.01% PS 20, pH 5.2",54 cP
same,Viscosity @ 25 C.,"[1]; 212 mg/mL, 250 mM Praline, 0.01% PS 20, pH 5.0",47 cP
same,Viscosity @ 25 C.,"[1]; 224 mg/mL, 9% Sucrose 0.01% PS 20, pH 5.2",133 cP
same,Viscosity @ 25 C.,"[1]; […], 150 mM Methionine, 3% Sucrose, 0.01% PS 20, pH 5.2",18 cP
same,Viscosity @ 25 C.,"[1]; […], 9% Sucrose 0.01% PS 20, pH 5.2",8 cP
same,"AUC0-t exposures, estimated CL0-t and apparent half-lives of 11F1 vs 8A3",[2],equivalent
same,TC returned to levels similar to control animals,[3],≤ 27 days
same,maximal LDL-C lowering as compared to control animals,[3],57%
same,maximal TC lowering as compared to control animals,[3],27%
same,maximal lowering of LDL-C vs anti-KLH IgG2 control at the same time point (change),[3],−57%
same,serum HDL-C vs anti-KLH IgG2 control,[3],No statistically significant changes
same,time of maximal LDL-C lowering after injection,[3],9 days
same,time of maximal TC lowering after injection,[3],9 days
same,triglycerides levels vs anti-KLH IgG2 control,[3],No statistically significant changes
same,serum ApoB vs anti-KLH IgG2 control,"[3]; days 3, 6, 15, 24 and 33",ApoB lowering at days 3 to 24
same,HDL-C or triglyceride levels vs anti-KLH IgG2 control,"[3]; each time point, alpha=0.05",not significantly different
